Tests used:
[1] = target: Stabilized human CFTR (stab-CFTR: 2PT/ΔRI/R1048A_1172X) (human, UniProt P13569 1-1171, limits assumed); assay: cell-based or functional assay
[2] = target: T1, F508del-2PT-NBD1 (human, UniProt P13569 388-646, biotinylated for the ELISA (sites not given)); assay: ELISA, biotinylated F508del-2PT-NBD1 on avidin-coated plate, nanobody titrated, anti-His detection
T1 construct: also called F508del-2PT-NBD1 mutant
Method: (§1) (a) Nanobody binding to 2PT-NBD1 measured by ELISA. Biotinylated 2PT-NBD1 was immobilized on avidin-coated plates and incubated with increasing concentration of each nanobody. Binding of nanobody was followed by immunodetection of the His-tag (see Methods). Representative curve of 3 independent experiments is shown. Error bars represent the standard deviation (SD) of duplicates. Data were normalized to maximum signal for each nanobody separately. (b) Nanobody binding to F508del-2PT-NBD1 measured by ELISA as described in panel a. (c) Nanobody T4 binding to 2PT-NBD1 and F508del-2PT-NBD1. Data were normalized to maximum signal of T4 binding to 2PT-NBD1. (d) Nanobody T8 binding to 2PT-NBD1 and F508del-2PT-NBD1. Data were normalized to maximum signal of T8 binding to 2PT-NBD1.
For dose-response assays, Nunc MaxiSorp 96-well plates (ThermoScientific), were coated with 5 μg/ml NeutrAvidin Biotin-Binding protein (ThermoScientific) overnight at 4° C. and blocked 2 h at room temperature (RT) with 2% milk in phosphate-buffered saline (PBS). Each new reagent addition was preceded by three washes with 200 μl of NBD1 buffer (20 mM HEPES pH 7.5, 150 mM NaCl, and 10% (w/v) glycerol, 10% (w/v) ethylene glycol, 2 mM ATP, 3 mM MgCl₂). Then, biotinylated purified NBD1 proteins at 5 μg/ml were immobilized 30 min at RT followed by 1 h RT incubation with 100 μl various concentrations (0-20 μg/ml) of purified nanobodies. Signal detection was followed using His-tag specific antibody (Invitrogen, catalogue number: MA1-135, 1:3000 dilution) to detect the nanobodies and secondary antibody anti-mouse coupled to horse radish peroxidase (HRP) (Millipore, catalogue number: AP308P, 1:5000 dilution). 50 μl of 1-Step UltraTMB-ELISA (ThermoScientific) was used as a substrate for the peroxidase and intensity of the reaction was proportional to absorbance measured at 450 nm with SynergyMx (BioTek) after addition of 50 μl H₂SO₄ at 1M.

[3] = target: T2, 2PT-NBD1 (human CFTR nucleotide-binding domain 1, residues 387-646, with S492P, A534P, I539T) (human, UniProt P13569 388-646, biotinylated for the ELISA (sites not given)); assay: ELISA, biotinylated 2PT-NBD1 on avidin-coated plate, T8 titrated, anti-His detection
T2 construct: N-terminal His6-SUMO tag removed with Ulp1; In the T2a-T4 and T27 crystals the domain was cut by papain or subtilisin
Method: as §1
(§2) For dose-response assays, Nunc MaxiSorp 96-well plates (ThermoScientific), were coated with 5 μg/ml NeutrAvidin Biotin-Binding protein (ThermoScientific) overnight at 4° C. and blocked 2 h at room temperature (RT) with 2% milk in phosphate-buffered saline (PBS). […] 50 μl of 1-Step UltraTMB-ELISA (ThermoScientific) was used as a substrate for the peroxidase and intensity of the reaction was proportional to absorbance measured at 450 nm with SynergyMx (BioTek) after addition of 50 μl H₂SO₄ at 1M.

[4] = target: T1, F508del-2PT-NBD1; assay: ELISA, biotinylated F508del-2PT-NBD1 on avidin-coated plate, T8 titrated, anti-His detection; normalised to the maximum of T8 on 2PT-NBD1
Method: as §1, §2

T1 sequence (P13569 other isoform, or with tags, fused parts or gaps limits assumed, stated change not applied): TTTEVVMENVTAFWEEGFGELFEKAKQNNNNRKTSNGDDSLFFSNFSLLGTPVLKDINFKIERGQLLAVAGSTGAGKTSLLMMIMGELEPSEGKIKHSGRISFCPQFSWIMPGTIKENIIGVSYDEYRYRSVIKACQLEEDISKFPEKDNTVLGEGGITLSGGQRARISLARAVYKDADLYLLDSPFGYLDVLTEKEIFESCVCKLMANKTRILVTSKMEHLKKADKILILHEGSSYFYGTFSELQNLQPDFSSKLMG
Sequence of Stabilized human CFTR (stab-CFTR: 2PT/ΔRI/R1048A_1172X) (P13569 other isoform, or with tags, fused parts or gaps R1048A R1048A limits assumed): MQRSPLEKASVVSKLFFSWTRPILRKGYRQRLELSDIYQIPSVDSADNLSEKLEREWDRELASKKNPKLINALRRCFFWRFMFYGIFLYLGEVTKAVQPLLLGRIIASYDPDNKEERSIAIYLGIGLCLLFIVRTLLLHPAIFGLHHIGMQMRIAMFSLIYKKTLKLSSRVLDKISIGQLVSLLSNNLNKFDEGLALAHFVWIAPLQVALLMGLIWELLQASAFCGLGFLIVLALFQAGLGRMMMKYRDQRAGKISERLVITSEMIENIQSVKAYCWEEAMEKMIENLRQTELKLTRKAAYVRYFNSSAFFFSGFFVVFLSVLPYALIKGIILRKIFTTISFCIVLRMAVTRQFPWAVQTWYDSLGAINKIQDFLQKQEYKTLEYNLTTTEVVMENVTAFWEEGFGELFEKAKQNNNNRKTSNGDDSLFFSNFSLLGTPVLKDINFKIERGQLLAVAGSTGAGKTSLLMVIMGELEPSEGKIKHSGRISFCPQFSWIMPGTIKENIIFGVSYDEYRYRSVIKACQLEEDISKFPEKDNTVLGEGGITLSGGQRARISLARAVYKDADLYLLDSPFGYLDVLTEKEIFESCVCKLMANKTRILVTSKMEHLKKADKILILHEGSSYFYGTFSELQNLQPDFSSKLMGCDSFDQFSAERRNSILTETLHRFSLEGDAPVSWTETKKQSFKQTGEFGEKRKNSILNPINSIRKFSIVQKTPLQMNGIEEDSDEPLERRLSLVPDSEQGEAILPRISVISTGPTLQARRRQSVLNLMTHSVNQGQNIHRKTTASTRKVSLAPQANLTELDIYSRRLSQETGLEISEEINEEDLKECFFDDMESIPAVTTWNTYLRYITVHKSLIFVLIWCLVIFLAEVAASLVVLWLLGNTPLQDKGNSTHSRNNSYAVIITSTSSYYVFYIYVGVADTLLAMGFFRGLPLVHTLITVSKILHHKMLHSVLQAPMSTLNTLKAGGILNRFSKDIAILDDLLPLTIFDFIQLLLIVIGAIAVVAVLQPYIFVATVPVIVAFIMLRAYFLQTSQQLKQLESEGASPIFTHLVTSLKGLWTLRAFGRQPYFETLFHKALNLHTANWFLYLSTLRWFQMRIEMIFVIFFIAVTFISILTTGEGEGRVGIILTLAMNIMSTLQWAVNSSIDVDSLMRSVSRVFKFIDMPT
T2 sequence (P13569 388-646 V470M/S492P/A534P/I539T limits assumed): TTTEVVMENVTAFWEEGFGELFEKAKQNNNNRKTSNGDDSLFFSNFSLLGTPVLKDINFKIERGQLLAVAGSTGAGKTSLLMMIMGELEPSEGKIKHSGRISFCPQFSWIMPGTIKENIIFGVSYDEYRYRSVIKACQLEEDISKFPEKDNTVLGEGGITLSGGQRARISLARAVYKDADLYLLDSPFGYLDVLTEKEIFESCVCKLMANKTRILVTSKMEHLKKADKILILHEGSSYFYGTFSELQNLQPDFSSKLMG

Binder | thermostabilization (nanoDSF, Tm) [1] | EC50 (read off the curve) [2] | EC50 (read off the curve) [3] | binding result [4]
Nanobody T2a (VHH, not shown: small tags and cut ends, Llama nanobody; also called Nb T2a; T2a Nb) VHH: QVQLQESGGGLVQAGGSLRLSCAASGSIFRIDAMGWYRQAPGKQRELVAHSTSGGSTDYADSVKGRFTISRDNAKNTVYLQMNSLKPEDTAVYYCNADVRTRWYASNNYWGQGTQVTVSS | 8 °C | ~10 nM | – | –
Nanobody T8 (VHH, not shown: small tags and cut ends, Llama nanobody; also called Nb T8; T8 Nb) VHH: QVQLQESGGGLVQPGGSLRLSCAASGSTSSINAMGWYRQAPGKQREPVAISSSGGDTRYAEPVKGRFTISRDNAQNKVYLQMNSLKPEDTAVYYCWLNWGRTSVNSWGQGTQVTVSS | – | – | ~10 nM | no binding (tested: log [T8] about -5.9 M)

Source: US20220289837A1 (VIB VZW, published 2022)
